Data on five molecules can be found in patent publication US20230220042A1 (SHANGHAI JIAO TONG UNIVERSITY SCHOOL OF MEDICINE, published 2023).

T1: Biotin-FcγRIIB (human FcγRIIB, Sino Biological) (human, UniProt P31994 43-217, limits assumed, biotin-labeled)
T1 construct: Used at 1 µg/ml with Streptavidin-APC for flow cytometry and sorting; also called CD32b
T1 sequence (looked up): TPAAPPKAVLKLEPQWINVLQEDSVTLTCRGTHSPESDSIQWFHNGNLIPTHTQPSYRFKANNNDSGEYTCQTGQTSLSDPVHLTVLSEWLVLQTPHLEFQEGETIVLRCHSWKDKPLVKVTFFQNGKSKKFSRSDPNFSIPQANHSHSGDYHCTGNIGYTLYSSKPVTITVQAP

B1: human IgG2 anti-mouse CD40 surface displayed antibody, P271G (antibody, name in EU numbering)
light chain (with the P2A rest): DTVLTQSPALAVSPGERVTISCRASDSVSTLMHWYQQKPGQQPKLLIYLASHLESGVPARFSGSGSGTDFTLTIDPVEADDTATYYCQQSWNDPWTFGGGTKLELKRTVAAPSVFIFPPSDEQLKSGTASVVCLLNNFYPREAKVQWKVDNALQSGNSQESVTEQDSKDSTYSLSSTLTLSKADYEKHKVYACEVTHQGLSSPVTKSFNRGECGSGATNFSLLKQAGDVEENPG
heavy chain: EVQLVESDGGLVQPGRSLKLPCAASGFTFSDYYMAWVRQAPTKGLEWVASISYDGSSTYYRDSVKGRFTISRDNAKSTLYLQMDSLRSEDTATYYCGRHSSYFDYWGQGVMVTVSSASTKGPSVFPLAPCSRSTSESTAALGCLVKDYFPEPVTVSWNSGALTSGVHTFPAVLQSSGLYSLSSVVTVPSSNFGTQTYTCNVDHKPSNTKVDKTVERKCCVECPPCPAPPVAGPSVFLFPPKPKDTLMISRTPEVTCVVVDVSHEDGEVQFNWYVDGVEVHNAKTKPREEQFNSTFRVVSVLTVVHQDWLNGKEYKCKVSNKGLPAPIEKTISKTKGQPREPQVYTLPPSREEMTKNQVSLTCLVKGFYPSDIAVEWESNGQPENNYKTTPPMLDSDGSFFLYSKLTVDKSRWQQGNVFSCSVMHEALHNHYTQKSLSLSPGKLEPPPSTVSNMATVAVLVVLGAAIVTGAVVAFVMKMRRRNTGGKGGDYALAPGSQTSDLSLPDCKVMVHDPHSLA
notes: m1 with this Fc mutation (Eu numbering); copies: 2 + 2
B2: human IgG2 anti-mouse CD40 surface displayed antibody, P271A/S298R (antibody, name in EU numbering)
light chain (with the P2A rest): DTVLTQSPALAVSPGERVTISCRASDSVSTLMHWYQQKPGQQPKLLIYLASHLESGVPARFSGSGSGTDFTLTIDPVEADDTATYYCQQSWNDPWTFGGGTKLELKRTVAAPSVFIFPPSDEQLKSGTASVVCLLNNFYPREAKVQWKVDNALQSGNSQESVTEQDSKDSTYSLSSTLTLSKADYEKHKVYACEVTHQGLSSPVTKSFNRGECGSGATNFSLLKQAGDVEENPG
heavy chain: EVQLVESDGGLVQPGRSLKLPCAASGFTFSDYYMAWVRQAPTKGLEWVASISYDGSSTYYRDSVKGRFTISRDNAKSTLYLQMDSLRSEDTATYYCGRHSSYFDYWGQGVMVTVSSASTKGPSVFPLAPCSRSTSESTAALGCLVKDYFPEPVTVSWNSGALTSGVHTFPAVLQSSGLYSLSSVVTVPSSNFGTQTYTCNVDHKPSNTKVDKTVERKCCVECPPCPAPPVAGPSVFLFPPKPKDTLMISRTPEVTCVVVDVSHEDAEVQFNWYVDGVEVHNAKTKPREEQFNRTFRVVSVLTVVHQDWLNGKEYKCKVSNKGLPAPIEKTISKTKGQPREPQVYTLPPSREEMTKNQVSLTCLVKGFYPSDIAVEWESNGQPENNYKTTPPMLDSDGSFFLYSKLTVDKSRWQQGNVFSCSVMHEALHNHYTQKSLSLSPGKLEPPPSTVSNMATVAVLVVLGAAIVTGAVVAFVMKMRRRNTGGKGGDYALAPGSQTSDLSLPDCKVMVHDPHSLA
notes: m1 with these Fc mutations (Eu numbering); copies: 2 + 2
B3: human IgG2 anti-mouse CD40 surface displayed antibody, P271G/P331C (antibody, name in EU numbering)
light chain (with the P2A rest): DTVLTQSPALAVSPGERVTISCRASDSVSTLMHWYQQKPGQQPKLLIYLASHLESGVPARFSGSGSGTDFTLTIDPVEADDTATYYCQQSWNDPWTFGGGTKLELKRTVAAPSVFIFPPSDEQLKSGTASVVCLLNNFYPREAKVQWKVDNALQSGNSQESVTEQDSKDSTYSLSSTLTLSKADYEKHKVYACEVTHQGLSSPVTKSFNRGECGSGATNFSLLKQAGDVEENPG
heavy chain: EVQLVESDGGLVQPGRSLKLPCAASGFTFSDYYMAWVRQAPTKGLEWVASISYDGSSTYYRDSVKGRFTISRDNAKSTLYLQMDSLRSEDTATYYCGRHSSYFDYWGQGVMVTVSSASTKGPSVFPLAPCSRSTSESTAALGCLVKDYFPEPVTVSWNSGALTSGVHTFPAVLQSSGLYSLSSVVTVPSSNFGTQTYTCNVDHKPSNTKVDKTVERKCCVECPPCPAPPVAGPSVFLFPPKPKDTLMISRTPEVTCVVVDVSHEDGEVQFNWYVDGVEVHNAKTKPREEQFNSTFRVVSVLTVVHQDWLNGKEYKCKVSNKGLPACIEKTISKTKGQPREPQVYTLPPSREEMTKNQVSLTCLVKGFYPSDIAVEWESNGQPENNYKTTPPMLDSDGSFFLYSKLTVDKSRWQQGNVFSCSVMHEALHNHYTQKSLSLSPGKLEPPPSTVSNMATVAVLVVLGAAIVTGAVVAFVMKMRRRNTGGKGGDYALAPGSQTSDLSLPDCKVMVHDPHSLA
notes: as for B2
B4: human IgG2 anti-mouse CD40 surface displayed antibody, L328M (antibody, name in EU numbering)
light chain (with the P2A rest): DTVLTQSPALAVSPGERVTISCRASDSVSTLMHWYQQKPGQQPKLLIYLASHLESGVPARFSGSGSGTDFTLTIDPVEADDTATYYCQQSWNDPWTFGGGTKLELKRTVAAPSVFIFPPSDEQLKSGTASVVCLLNNFYPREAKVQWKVDNALQSGNSQESVTEQDSKDSTYSLSSTLTLSKADYEKHKVYACEVTHQGLSSPVTKSFNRGECGSGATNFSLLKQAGDVEENPG
heavy chain: EVQLVESDGGLVQPGRSLKLPCAASGFTFSDYYMAWVRQAPTKGLEWVASISYDGSSTYYRDSVKGRFTISRDNAKSTLYLQMDSLRSEDTATYYCGRHSSYFDYWGQGVMVTVSSASTKGPSVFPLAPCSRSTSESTAALGCLVKDYFPEPVTVSWNSGALTSGVHTFPAVLQSSGLYSLSSVVTVPSSNFGTQTYTCNVDHKPSNTKVDKTVERKCCVECPPCPAPPVAGPSVFLFPPKPKDTLMISRTPEVTCVVVDVSHEDPEVQFNWYVDGVEVHNAKTKPREEQFNSTFRVVSVLTVVHQDWLNGKEYKCKVSNKGMPAPIEKTISKTKGQPREPQVYTLPPSREEMTKNQVSLTCLVKGFYPSDIAVEWESNGQPENNYKTTPPMLDSDGSFFLYSKLTVDKSRWQQGNVFSCSVMHEALHNHYTQKSLSLSPGKLEPPPSTVSNMATVAVLVVLGAAIVTGAVVAFVMKMRRRNTGGKGGDYALAPGSQTSDLSLPDCKVMVHDPHSLA
notes: as for B1
B5: human IgG2 anti-mouse CD40 surface displayed antibody, P271G/P329S (antibody, name in EU numbering)
light chain (with the P2A rest): DTVLTQSPALAVSPGERVTISCRASDSVSTLMHWYQQKPGQQPKLLIYLASHLESGVPARFSGSGSGTDFTLTIDPVEADDTATYYCQQSWNDPWTFGGGTKLELKRTVAAPSVFIFPPSDEQLKSGTASVVCLLNNFYPREAKVQWKVDNALQSGNSQESVTEQDSKDSTYSLSSTLTLSKADYEKHKVYACEVTHQGLSSPVTKSFNRGECGSGATNFSLLKQAGDVEENPG
heavy chain: EVQLVESDGGLVQPGRSLKLPCAASGFTFSDYYMAWVRQAPTKGLEWVASISYDGSSTYYRDSVKGRFTISRDNAKSTLYLQMDSLRSEDTATYYCGRHSSYFDYWGQGVMVTVSSASTKGPSVFPLAPCSRSTSESTAALGCLVKDYFPEPVTVSWNSGALTSGVHTFPAVLQSSGLYSLSSVVTVPSSNFGTQTYTCNVDHKPSNTKVDKTVERKCCVECPPCPAPPVAGPSVFLFPPKPKDTLMISRTPEVTCVVVDVSHEDGEVQFNWYVDGVEVHNAKTKPREEQFNSTFRVVSVLTVVHQDWLNGKEYKCKVSNKGLSAPIEKTISKTKGQPREPQVYTLPPSREEMTKNQVSLTCLVKGFYPSDIAVEWESNGQPENNYKTTPPMLDSDGSFFLYSKLTVDKSRWQQGNVFSCSVMHEALHNHYTQKSLSLSPGKLEPPPSTVSNMATVAVLVVLGAAIVTGAVVAFVMKMRRRNTGGKGGDYALAPGSQTSDLSLPDCKVMVHDPHSLA
notes: as for B2

This assay has as its target T1, Biotin-FcγRIIB (human FcγRIIB, Sino …). Kind of assay: NGS after FACS sort of 3T3-displayed LibraryMix for biotin-FcγRIIB binding.
On to B1, for which the “Enrichment factor (percentage after sorting/percentage before sorting)” value was 68.9 and the “Increased factor (enrichment factor/wild-type enrichment factor)” value is 92.1.

For B2, the “Enrichment factor (percentage after sorting/percentage before sorting)” value is 2.45 and the “Increased factor (enrichment factor/wild-type enrichment factor)” value came to 3.27.

In the case of B3, the “Enrichment factor (percentage after sorting/percentage before sorting)” value was found to be 140 and the “Increased factor (enrichment factor/wild-type enrichment factor)” value came out at 187.

Take B4: the “Enrichment factor (percentage after sorting/percentage before sorting)” value amounted to 24.9 and the “Increased factor (enrichment factor/wild-type enrichment factor)” value stood at 33.3.

Regarding B5, the “Enrichment factor (percentage after sorting/percentage before sorting)” value was determined as 46.2 and the “Increased factor (enrichment factor/wild-type enrichment factor)” value was 61.8.
